Reference: patent publication US20240026407A1, “MODIFICATION OF SAPONINS” (GLAXOSMITHKLINE BIOLOGICALS SA, priority 2020, published 2024)

Tests used:
Assay type in all cases: biochemical, Quillaja saponaria
[1] = Experiment 6-1: screening of rhamnosidases for derhamnosylation of saponins in treated bark extract (2%), QS-17 2296 to QS-18 2150 (PAR %); details: TBE 2%, pH 7.5, 30 degC, 18 h; TIC peak area ratio percent of rhamnosylated starting saponin to derhamnosylated product, LCMS/MS; negative controls 4.876, 5.225
[2] = Experiment 6-1: screening of rhamnosidases for derhamnosylation of saponins in treated bark extract (2%), desglucosyl-QS-17 2134 to QS-21 1988 (PAR %); details: TBE 2%, pH 7.5, 30 degC, 18 h; TIC peak area ratio percent, LCMS/MS; negative controls 2.719, 2.158
[3] = Experiment 6-1: screening of rhamnosidases for derhamnosylation of saponins in treated bark extract (2%), QS-17 2310 to QS-18 2164 (PAR %); details: TBE 2%, pH 7.5, 30 degC, 18 h; TIC peak area ratio percent, LCMS/MS; negative controls 3.061, 2.429
[4] = Experiment 6-2: screening of rhamnosidases for derhamnosylation of saponins in treated bark extract (25%), relative % of Left, Middle and Right Peak by UV HPLC; details: TBE 25%, pH 7.4, 19.5 h; for Left Peak: mainly QS-17 family, negative control 24%; for Middle Peak: mainly QS-18 and desglucosyl-QS-17 family, negative control 50%; for Right Peak: mainly QS-21 family, negative control 26%
[5] = Experiment 6-3: screening of rhamnosidases for derhamnosylation of saponins in crude bark extract (80%), relative % of Left, Middle and Right Peak by UV HPLC; details: CBE 80%, pH 7.4, 30 degC, 19.5 h; for Left Peak: mainly QS-17 family, negative control 27%; for Middle Peak: mainly QS-18 and desglucosyl-QS-17 family, negative control 48%; for Right Peak: mainly QS-21 family, negative control 26%
Experimental: Selected variants were expressed and lysed as in the method of experiment 6-1.
Crude bark extract (CBE) solution was adjusted to pH 7.4 by addition of NaOH (2M). 20 uL clarified lysate was transferred into fresh 96 well PCR plates. 80 uL CBE solution (pH 7.4) was added to each well of lysate to a final concentration of 80%. Plates were incubated at 30 degC with shaking for 19.5 h.
Quenched with 100 uL MeCN+2% AcOH and shaken at room temperature for 10 mins prior to centrifugation (10 min, 4 degC) to remove particulates. Samples were analysed by UV HPLC using method of Experiment 4-4.
Three key peaks of interest are apparent using this chromatography: Left Peak (retention time approximately 2.30-2.35 min) comprising mainly QS-17 family components; Middle Peak (retention time approximately 2.37-2.42 min) comprising mainly QS-18 family components and desglucosyl-QS-17 family components; and Right Peak (retention time approximately 2.44-2.50 min) comprising mainly QS-21 family components. Peak identity was supported by MS/MS.
Enzyme mediated hydrolysis of the alpha-O-rhamnosylation at the C2 position of the arabinofuranose moiety of QS-17 family components leads to a decrease in Left Peak and an increase in Middle Peak due to formation of QS-18 family components. Enzyme mediated hydrolysis of the alpha-O-rhamnosylation at the C2 position of the arabinofuranose moiety of desglucosyl-QS-17 family components leads to a decrease in Middle Peak and an increase in Right Peak due to formation of QS-21 family components.
The relative percentage of each peak was determined. A decrease in Left Peak and a concomitant increase in Middle Peak and Right Peak is observed for enzymes active under these conditions.

[6] = Experiment 6-1: specificity of rhamnosidases towards other rhamnose residues (C3 saccharide rhamnose, C28 saccharide rhamnose); details: TBE 2%, pH 7.5, 30 degC, 18 h; LCMS/MS; negative controls 0.18, 0.17

Row | Molecule | QS-17 (PAR %) [1] | Peak75 (PAR %) [2] | Peak57 (PAR %) [3] | Left Peak [4] | Middle Peak [4] | Right Peak [4] | Left Peak [5] | Middle Peak [5] | Right Peak [5] | ratio PP/QS-21 [6]
1 | 1079 (protein, listed as Lunatimonas lonarensis) MSMIRILSLLFLWMLSFSLVAQSTFSLQKLKVDHQENPLGIETASPVFSWQMQVAGSERGVYQKAYRIQVSDSHGALIWDSQQVSSDRSVGIRYQGEKLRPITAYTWSLTVWNQSDHSQTEIGKFETGWMDSPNAWKNAEWIGGDSEDLVLYAHALAVFKAGVTIQLDQESKSTRAAFLLGGNDVRLMKKNLNILQMESGRDGSYVGFELDISQVNGTEEGLALLHAYRVGYHADDQVGTPFHSMPIPQRLIHEGNKYEPHDLFLECNLGIFQVYLNGTENENKISPNDPSKPSYVAQGLNLNPMGEGGNYINFPLLGDIGFKTDSGQLATFSNLTISNYRRPGNVLFSEAESTISIFDKHPNIRAIAGRYQVGTDNKAVLALEDPSRNAPPMLRTTFTTQAKKIKKARIYATARGIYEMYLNGKRVGQDYFNPGLTQYNKNHQYQIYEVTDALESNAANAWGAWLSEGWWSGHITFSGGNWNFFGDRQSFLGTLLIEYEDGTVQEINTQPQSWKLFTDGPILNGSFFQGEVYDANKESVLTGWSLAQFDDSSWKSAQNVPLEGTTYTGPMTNGTLDYKQLTLSAQNDPTPTIIRRLKAVSMEEVRPGVFVYDMGQNMVGVPKITLSHGHQGDTVILRFAEVKYPDLPAYHPHSGMIMMENIRAALTHDIYIRKGGDEVIQPRFTFHGYRYVEITGIKNAPPLNAVEGLVISSVDSIRSSYTTSNQDVNKLWENITWSMLGNFLSIPTDTPARNERMGWSGDINVFARTSTYLGEVLPFLKRHMMAMRDLQAANGKFADVTPVGNGFGGTLWGSAGIVLPWELFLQYGDTTILEENYEAMKAYLAFLETREDKDSGVQMEGPLGDWLSPEVNKNDNTQFFTAYQAYGYGILHQVAQILGKPTEAATFQAKFASRKKFLMDTYFDARTGKSIHSGVSTQGRGGSTAPGTQKGDPIDTQASYAIPLYLEVIDGDLQEKVLANLIATLARENVDDMGILRPAYSLMTGFIATAAINEAISRYGDPVHAYRLLQQTSYPSWLYSVKNGATTIWERLNSYTVEDGFGGNNSMNSFNHYSFGAVGAWMYMYSLGIQRHPEIPGFKKFRLQPQPDPDGKMTWAKGHYDSMYGRIHSEWKRGVDSWEYKATVPPNTSAVLVLPVKDLERVSEGGKMLTEVLGITLISRENGYITMELSSGSYTFSIE | 0.315% | 0.247% | 0.000% | 14% | 58% | 28% | 25% | 48% | 27% | 0.18
2 | 1007 (protein, listed as Modestobacter marinus) MSDPTVTVVRLRTDDDSGLTATANATPRLSWSLAADRSGVLQRGYEVQVAPDPGFADPVSSGEVDSDVVVDHDWPAAPLTSRQVAYWRVRVRTDQGWTAWGEPACVEAALLEDADWTARPVFLAGDRGRDGVGPAPLLRREFELPAEPVSARLYLTALGVHRTTLNGRPVGDELLEPGWTSYRDRLLYATHDVTALLRAGRNVLAGSVGDGWFRGNLGWDRLRDFYGDASALLAQLEVRCADGSTVTVSTDEHWRGGYGAVRAADLYDGCDIDLREEPVGWAEAGFDDAGWEPVGTLPLPAGLSQRALPPVRVLQEIEPQVSELSDGTLAVDAGQNVTGWLRLRVTGPSGARVTVRHAEVLDEKGRLVTTLLRSARATDTVVLAGGTADLEPEFTFHGFRYAEVEVPPGVTVDAVRVAVVASDLRRTGQFSCSNPRVDQLFSNVIWSQRDNFLSIPTDCPQRDERLGWTGDIMAFAPTAAANFDSRAFLDSWLTDVGIEQLPSGGVPMVVPNCLTGEFPSPLPQADGAAGWADAVTVVPAALFRAHGSRDLLRRHVGSMQRWVDYVAGLLAEDGTWSGYLQLGDWLDPNAPPERPFEAVTDRDYVATVFVAHSARLLAATCRELGRGPDADRYAALGDRVAQAAWAKWADLAPTTQTGCALAIVFGSAPDAELPALGDALAGLVRASGGRIGTGFLGTPFVLPALTATGHLAEAYQLLLNEECPGWLYQIRHGATTMWERWDGILADGSVHPGQMADGSTMSSFNHYAYGAVASWLYESVAGLSPAAPGYREVLVAPQPGGGLTRAAASIETEYGPASVGWSTDGATLTVDVTLPPGTTGRFAVPAGWSPQQPVALLGSGQHTLLLTGAGA | 0.104% | 0.043% | 0.009% | 8% | 62% | 30% | 24% | 49% | 27% | 0.19
3 | 1027 (protein, listed as Dictyoglomus thermophilum) MKSSNIYSPFDLKCEFTTNPLGVDKKNPIFSWKLRHLEKNEKQTAYQVIVSSSLETINDNIGDVWDTGKVLSSEQVIKYEGKELEPCKVYFWKVRWWDSKDQESPFSVVNTFETGLMNEENWKAKWITKKEHKYEVYSPDGAPFGLNYTIAYAPMFRKSFSISKKIKRARVYIAGLGLYELYINGERIGDRVLDPGQTDYKKRVLYTVYDVSKNIRDGKNAIGVILGNGRYVKEYGYDFPKLIIQVLVEYEDDSIEWIVSDESWKTTYGPITLNSLYHGEIYDGRKEIKGWNLPDFDDSTWENAILAEPPGGKLYSEIYPPIRITKTIKPIKMWSPEPGTYVYDFGQNYTGWIKIKVRTNESGKEIRIRHAELTYEDGTLNYSTNRTALATDVYITKGEGYEEYEPRFTYHGFRYVEILGYPGVPTLEDIEGKVVHTAVESNGEFICSNELINKIHHNIIWGQLSNLMSIPTDCPQRDERMGWMGDAQLSAEEAIFNFDMIGFYRKYLNDIRDAQKENGSLSDVIPPYWSIYPGDPAWSTAYITIAWYLYQYYGDKYVLEEHYEGFKKYVEFLKKLAPDYIVSFYKYGDWCQPGTVRPKDNSGELTSTFYFYHDVITLSKIAKLLGKEADYKYYSELADKIKSAFNKKFLKEKAYASIPTELSEENVKALLEKYPEDIKDFLRQQFTILSSLGMFTSQTLNTLPLYLNLVPEDKVQDVLKTLLEDIIIRHDYHLDTGIVATRYIFDVLTSYGYDEVAYKIVNQKTYPSFGYMIEEGATTLWERWEKLTSTGMNSHNHIMFGSVDAWFYRVIAGVRVGEPGWNKIIFEPHPVGDLKYAKARLNTIKGEVEINWQKTENIFSMRISVPVNSEGEVHVPKLFERFVVKEGDNIIYEKKGDLEENEKYIVIRVGSGSYNFYMEKI | 0.324% | 0.094% | 0.053% | 18% | 55% | 27% | 26% | 48% | 26% | 0.19
4 | 1061 (protein, listed as Rhizobium leguminosarum) MNFQPAAISGNLVSRTWSGDMIAPLSDGGQGTAASFVSKTFEHDGTKLPAELFISALGLYRCFINGVRVGSDLLTPGWTNYDDRLAYQRYDVSNLLKPGLNRIEIWLADGWYRSPLMWGAQAIPNCWGDRIGAIADLIGADGTVLSTDTTWRSGVLPILRSGIYFGEIYDARQENCVETHGTEKLAFDKALLVAHETAAVRELRPLTAVENWTDDEGRTIYDFGQNAGGYIRYTVRGTAGAEVRVEHSEVLGPDRHFDNRNYRTAAAHTVYTLRGNGDETYAPHFTFHGFRYARVTIKGDAKILAIASIPISSVPEPAGGFTSGNALVNRLVENTIWSQRANFVEVPTDCPQRDERLGWTGDAQVFAATACWLSDSQSFLRKYLRDVMADQREDGAVSHFSPDPTRLHPANFPGYAGSTGWGDAIVVIPWVLYTHYGDRAVLSECLESMVRWVDFVWSISDGPLVRPPSRWGDRGFTFGDWLQPVGDNRKPRPTIADDCAATLYHFISTDLLARIAATLGEHALEEKMKQRANEIRRAFTNEFITPAGRLAHNDQTSYALAFLHDLIPAEHRQAAQQHFRQVIIDADYKIGTGFIGTPALLPALTKLGMDDLAEKVFLQEDVPGWLYQVSKGATTIWERWDSMAPDGTIYEPDMNSYNHYAYGAVCQWLFESVAGISPSPSAPGFAEVIVDPAPIPSLSPVSAYHDISQGRIEAGWHCDGKKVTYVLTLPEGCIGWFRPGKRHQNPSLNGEPVVEEAVLAPGTHRLVFSLPNS | 0.245% | 0.230% | 0.029% | 13% | 59% | 28% | 26% | 48% | 27% | 0.19
